Data set [1] addresses Fc receptor on THP-1 cells. Put plainly: cell-based or functional assay.
Data set [2] relates to S100b/RAGE-induced production of TNF-α in THP-1 cells. Put plainly: Inhibition of S100b/RAGE-induced production of TNF-α in THP-1 cells. Type of data set: cell-based. The following applies: 10 μg protein. The method, then: THP-1 myeloid cells may be cultured in RPMI-1640 media supplemented with 10% FBS and induced to secrete TNF-α via stimulation of RAGE with S100b. When such stimulation occurs in the presence of a RAGE fusion protein, induction of TNF-α by S100b binding to RAGE may be inhibited.
Previous work has shown that the myeloid THP-1 cells may secrete TNF-α in response to RAGE ligands. In this assay, THP-1 cells were cultured in RPMI-1640 media supplemented with 10% FBS using a protocol provided by ATCC. […] The amount of TNF-α secreted by the THP-1 cells was measured 24 hours after the addition of the proteins to the cell culture using a commercially available ELISA kit for TNF-α (R&D Systems, Minneapolis, Minn.).

For data set [3], the system named is male C57BL/6 mice, cerebral ischemia. Put plainly: Mouse model of stroke (cerebral ischemia and reperfusion, infarct). In kind it is in vivo. The following applies: treated just prior to reperfusion. The method, then: For example, the RAGE fusion proteins of the present invention may also be used to treat stroke. […] In this model, the […] of a mouse is ligated and then reperfused to form an infart. To assess the efficacy of RAGE fusion proteins to treat or prevent stroke, mice were treated with sRAGE or TTP-4000 or control immunoglobulin just prior to reperfusion.
TTP-4000 was also compared to sRAGE in a disease relevant animal model of stroke. In this model, the […] of a mouse was ligated for 1 hour followed by 23 hours of reperfusion at which point the mice were sacrificed and the area of the infarct in the brain was assessed. […] After the nylon suture had been in place for 1 hour, the animal was re-anesthetized, rectal temperature was recorded and the suture was removed and the incision closed.
Infarct volume was determined by anesthetizing the animals with an intraperitoneal injection of sodium pentobarbital (50 mg/kg) and then removing the brains. […] The infarct area in each section was determined with a computer-assisted image analysis system, consisting of a Power Macintosh computer equipped with a Quick Capture frame grabber card, Hitachi CCD camera mounted on a camera stand. […] The images were captured and the total area of infarct was determined over the sections. […] Summing the infarct volumes of the sections calculated the total infarct volume. […]

In another data set the test system is amyloid-beta (A-beta). Put plainly: Competition of a RAGE ligand with immobilized amyloid-beta for binding to the fusion protein. Particulars: TTP-4000 initial solution diluted 1:10 or 1:30; RAGE ligand FAC 10 μM. How it is done:
The fusion protein of the present invention may also be used to identify compounds having the ability to bind to RAGE.
Known RAGE ligands were coated onto the surface of Maxisorb plates at a concentration of 5 micrograms per well. Plates were incubated at 4° C. overnight. Following ligand incubation, plates were aspirated and a blocking buffer of 1% BSA in 50 mM imidizole buffer (pH 7.2) was added to the plates for 1 hour at room temperature. The plates were then aspirated and/or washed with wash buffer (20 mM Imidizole, 150 mM NaCl, 0.05% Tween-20, 5 mM CaCl2 and 5 mM MgCl2, pH 7.2). […] The fusion protein was added at increasing dilutions of the initial sample. The RAGE fusion protein was allowed to incubate with the immobilized ligand at 37° C. for one hour after which the plate was washed and assayed for binding of the fusion protein. Binding was detected by the addition of an immunodetection complex containing a monoclonal mouse anti-human IgG1 diluted 1:11,000 to a final assay concentration (FAC) of 21 ng/100 μL, a biotinylated goat anti-mouse IgG diluted 1:500, to a FAC of […], and an avidin-linked alkaline phosphatase. […] Binding of the complex to the immobilized fusion protein was quantified by measuring conversion of PNPP to para-nitrophenol (PNP) which was measured spectrophotometrically at 405 nm. […]

In data set [4] the test system is Zucker diabetic rats, restenosis following vascular injury. Put plainly: Diabetic rat model of restenosis (balloon injury of left common carotid artery). In kind it is in vivo. The following applies: 4 days after injury; dose-responsive; FIG. 13B. How it is done: In these experiments, balloon injury of left common carotid artery was performed in Zucker diabetic and nondiabetic rats using standard procedure. […] A maintenance dose was delivered every other day until day 7 after injury (i.e., at day 1, 3, 5 and 7 after injury). The maintenance dose was high=1 mg/animal for one group, or low=0.3 mg/animal for the second group. To measure vascular smooth muscle cell (VSMC) proliferation, animals were sacrificed at 4 days and 21 days after injury. For the measurement of cell proliferation, 4 day animals received intraperitoneal injection of bromodeoxyuridine (BrDdU) 50 mg/kg at 18, 12, and 2 hours before euthanasia. After sacrifice, the entire left and right carotid arteries were harvested. Specimens were stored in Histochoice for at least 24 hours before embedding. Assessment of VSMC proliferation was performed using mouse anti-BrdU monoclonal antibody. A fluorescence labeled goat anti-mouse secondary antibody was applied. The number of BrdU-positive nuclei per section were counted by two observers blinded to the treatment regimens. The remaining rats were sacrificed at 21 days for morphometric analysis. […] All data were expressed as mean±SD. […]

The results in this text go back to patent US20060078562A1, “RAGE fusion proteins and methods of use” (priority 2004, published 2006).

On to human IgG1 (heat aggregated) (antibody), for which the TNF secreted by THP-1 cells in wells precoated with 10 ug/well heat aggregated human IgG1, 24 hours in data set [1] is more than 40 ng/well.

B1: TTP-4000: four domain RAGE-IgG Fc fusion protein, SEQ ID NO: 32: human RAGE amino acids 1-251 linked to CH2 and CH3 domains of human IgG (protein, listed as Homo sapiens)
chain: MAAGTAVGAWALVLSLWGAVVGAQNITARIGEPLVLKCKGAPKKPPQRLEWKLNTGRTEAWKVLSPQGGGPWDSVARVLPNGSLFLPAVGIQDEGIFRCQAMNRNGKETKSNYRVRVYQIPGKPEIVDSASELTAGVPNKVGTCVSEGSYPAGTLSWHLDGKPLVPNEKGVSVKEQTRRHPETGLFTLQSELMVTPARGGDPRPTFSCSFSPGLPRHRALRTAPIQPRVWEPVPLEEVQLVVEPEGGAVAPPSVFLFPPKPKDTLMISRTPEVTCVVVDVSHEDPEVKFNWYVDGVEVHNAKTKPREEQYNSTYRVVSVLTVLHQDWLNGKEYKCKVSNKALPAPIEKTISKAKGQPREPQVYTLPPSRDELTKNQVSLTCLVKGFYPSDIAVEWESNGQPENNYKTTPPVLDSDGSFFLYSKLTVDKSRWQQGNVFSCSVMHEALHNHYTQKSLSLSPGK
Consider B1, for which the “blocking S100b induction of TNF-α compared with sRAGE” value in data set [2] is “at least as effective”. Moreover, the “reduction in infarct volume compared to sRAGE” value in data set [3] was “significantly greater reduction”. Besides, in the data set with amyloid-beta (A-beta), the “binding of fusion protein to immobilized amyloid-beta blocked by the RAGE ligand” value is “completely inhibited”. Further, the “vascular smooth muscle cell proliferation (number of BrdU proliferating cells)” value in data set [4] was “significantly reduced”.
